Experimental data reported in publication PMC2116221.

Target: taxol-stabilized microtubules (bovine brain tubulin) (bovine) (UniProt Q6B856)
Test: co-sedimentation

Sequence of UniProt Q6B856 (Q6B856 whole entry, looked up): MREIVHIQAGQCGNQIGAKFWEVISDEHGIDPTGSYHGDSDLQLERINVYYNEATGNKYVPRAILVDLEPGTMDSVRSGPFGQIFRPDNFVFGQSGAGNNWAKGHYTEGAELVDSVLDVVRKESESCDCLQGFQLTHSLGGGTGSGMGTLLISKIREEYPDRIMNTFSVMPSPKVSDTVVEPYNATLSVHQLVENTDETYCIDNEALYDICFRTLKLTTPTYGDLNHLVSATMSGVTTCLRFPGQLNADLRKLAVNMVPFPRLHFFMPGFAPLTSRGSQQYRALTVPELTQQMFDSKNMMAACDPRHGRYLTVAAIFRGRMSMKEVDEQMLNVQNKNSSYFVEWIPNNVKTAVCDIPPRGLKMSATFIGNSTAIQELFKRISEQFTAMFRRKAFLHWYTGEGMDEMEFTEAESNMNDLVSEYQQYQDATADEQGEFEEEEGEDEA

| Substance | percent extracted from microtubules by 0.5 M NaCl |
| --- | --- |
| CHO1 antigen, polypeptide of ~100 kD (HeLa cytoplasm) (from UniProt Q02241-2 1-856) (natural protein) | 60% |
| CHO1 antigen, polypeptide of ~115 kD (HeLa cytoplasm) (from UniProt Q02241 1-960) (natural protein) | 60% |
